From patent US20220056119A1 (Regeneron, published 2022)

T1: Activin A (human, UniProt P08476 311-426)
T1 construct: Homodimer of two betaA subunits; bought (R&D Systems #338-AC); also called inhibin-betaA dimer
T1 sequence: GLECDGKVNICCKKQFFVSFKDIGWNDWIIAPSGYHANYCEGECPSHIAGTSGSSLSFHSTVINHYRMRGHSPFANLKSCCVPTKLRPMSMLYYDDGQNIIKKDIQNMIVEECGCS

T2: Activin AC (human, UniProt P55103 237-352)
T2 sequence 1: T1 sequence
T2 sequence 2: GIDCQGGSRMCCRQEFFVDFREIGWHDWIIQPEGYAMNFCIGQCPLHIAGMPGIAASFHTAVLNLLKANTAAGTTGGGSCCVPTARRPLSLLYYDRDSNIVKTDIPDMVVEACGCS

T3: Activin B (human, UniProt P09529 293-407)
T3 chain: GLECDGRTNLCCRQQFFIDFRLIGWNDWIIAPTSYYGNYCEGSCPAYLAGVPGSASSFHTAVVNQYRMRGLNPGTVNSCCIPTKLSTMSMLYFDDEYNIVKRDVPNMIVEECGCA

T4: Activin AB (human, UniProt P08476 311-426; P09529 293-407)
T4 chain 1: T1 sequence
T4 chain 2: T3 chain

T5: Activin B (homodimer of two inhibin betaB subunits) (human, UniProt P09529 293-407)
T5 construct: Bought (R&D Systems #659-AB-025/CF)
T5 chain: T3 chain

B1: H4H10436P2 (antibody, human IgG4, V domains shown)
VH: QVQLVESGGGVVQPGRSLRLTCVASGFTVSSYGMHWVRQAPGKGLEWVAVMFYDESKKYYADSVKGRFTISRDNSKNTLYLQMNSLRVEDTAVYYCARDEQLDFEYWGQGTLVTVSS
VL: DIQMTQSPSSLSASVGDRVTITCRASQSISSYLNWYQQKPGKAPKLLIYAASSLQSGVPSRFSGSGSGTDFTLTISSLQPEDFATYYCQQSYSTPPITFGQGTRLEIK
B2: H4H10423P (antibody, human IgG4, V domains shown)
VH: QVQLQQSGPGLLKPSQTLSLTCAISGDSVSSNSAAWSWIRQSPSRGLEWLGRTYYRANWFNDYALSVKSRITINPVTSTNHFSLQLHSVTPEDTAVYYCAREGALGYYFDSWGQGTLVTVSS
VL: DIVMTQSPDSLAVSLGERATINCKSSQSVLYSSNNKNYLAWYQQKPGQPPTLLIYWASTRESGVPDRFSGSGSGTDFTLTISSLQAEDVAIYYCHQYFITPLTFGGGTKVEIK
B3: H4H10429P (antibody, human IgG4, V domains shown)
VH: QVQLVESGGGVVQPGRSLRLSCVASGFTVSSYGIHWVRQAPGKGLEWVSVIWYDGRNKDYADSVKGRFTISRDNSKNTVYLEMKGLRAEDTALYYCARDKTGDFDSWGQGTLVTVSS
VL: DIQMTQSPSSLSASVGDRVTITCRASQNINSFLSWYQQKPGKAPKFLIYDASSIQSGAPSRFSGSGSGTDFTLTISSLQPEDFATYYCQQSYSSPFTFGQGTKLEIK
B4: H4H10440P2 (antibody, human IgG4, V domains shown)
VH: EVQLVESGGGVVQPGGSLRLSCAASTFTFDDFAMHWVRQAPGKGLEWVSLITGDGGSTYYADPVKGRFTISRDNSKNSLYLQMNSLRTEDTALYYCVKDWWIAARPDYYYYGMDVWGQGTTVTVSS
VL: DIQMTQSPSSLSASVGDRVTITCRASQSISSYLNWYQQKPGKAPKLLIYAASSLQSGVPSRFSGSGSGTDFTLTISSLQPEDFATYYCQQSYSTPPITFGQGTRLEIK

What was measured:
Activin A [1] = target: T1, Activin A; test: SPR, 5 nM Activin A + 0.94 nM binder over hActRIIA-hFc surface
Procedure: (§1) The binding signal (RU) was measured at 150 seconds after the start of the injection, and this signal was subtracted by the measured RU value for a negative control reference surface to determine the specific binding signal.

Activin A [2] = target: T1, Activin A; test: SPR, 5 nM Activin A + 1.88 nM binder over Follistatin-288 surface
Procedure: as §1

Activin A [3] = target: T1, Activin A; test: SPR, 5 nM Activin A + 60 nM binder over Follistatin-288 surface
Procedure: as §1

Activin AC = target: T2, Activin AC; test: cell-based or functional assay
Activin A [4] = target: T1, Activin A; test: cell-based or functional assay
Activin B = target: T3, Activin B; test: cell-based or functional assay
Activin AB = target: T4, Activin AB; test: cell-based or functional assay
Activin A [5] = target: T1, Activin A; test: SPR, 5 nM Activin A + 60 nM binder over hActRIIA-hFc surface
Procedure: as §1

Activin A [6] = target: T1, Activin A; test: SPR, 5 nM Activin A + 1.88 nM binder over hActRIIA-hFc surface
Procedure: as §1

Activin A [7] = target: T1, Activin A; test: SPR, 5 nM Activin A + 7.5 nM binder over Follistatin-288 surface
Procedure: as §1

Activin A [8] = target: T1, Activin A; test: SPR, 5 nM Activin A + 0.94 nM binder over Follistatin-288 surface
Procedure: as §1

Activin A [9] = target: T1, Activin A; test: SPR, 5 nM Activin A + 15 nM binder over hActRIIA-hFc surface
Procedure: as §1

Activin A [10] = target: T1, Activin A; test: SPR, 5 nM Activin A + 3.75 nM binder over Follistatin-288 surface
Procedure: as §1

Activin A [11] = target: T1, Activin A; test: SPR, 5 nM Activin A + 15 nM binder over Follistatin-288 surface
Procedure: as §1

Activin A [12] = target: T1, Activin A; test: SPR, 5 nM Activin A + 0.00 nM binder (no inhibitor) over hActRIIA-hFc surface
Procedure: as §1

Activin A [13] = target: T1, Activin A; test: SPR, 5 nM Activin A + 7.50 nM binder over hActRIIA-hFc surface
Procedure: as §1

Activin A [14] = target: T1, Activin A; test: SPR, 5 nM Activin A + 30 nM binder over hActRIIA-hFc surface
Procedure: as §1

Activin A [15] = target: T1, Activin A; test: SPR, 5 nM Activin A + 30 nM binder over Follistatin-288 surface
Procedure: as §1

Activin A [16] = target: T1, Activin A; test: SPR, 5 nM Activin A + 3.75 nM binder over hActRIIA-hFc surface
Procedure: as §1

Activin A [17] = target: T1, Activin A; test: SPR, 5 nM Activin A + 0 nM binder (no inhibitor) over Follistatin-288 surface
Procedure: as §1

[18] = target: T5, Activin B (homodimer of two inhibin …); test: SPR (Biacore), mAb captured by anti-Fc, Activin B injected, 25 C
Procedure: Antibody-antigen association was monitored for 240 seconds while dissociation in buffer was monitored for 600 seconds. Kinetic association and dissociation rate constants were determined by processing and fitting the data using Scrubber software version 2.0c. Binding equilibrium dissociation constants (KD) and dissociative half-lives (t_{1/2}) were then calculated from the kinetic rate constants as: KD (M)=kd/kₐ and t_{1/2} (min)=[ln 2/(60*kd)]. (NB=no binding observed under the conditions used; NT=not tested).

| Binder | % bound RU w/ no inhibitor (Activin A [1]) | % bound RU w/ no inhibitor (Activin A [2]) | % bound RU w/ no inhibitor (Activin A [3]) | IC50, inhibition of 4 nM Activin AC in A204/CAGAx12-Luc luciferase bioassay (Activin AC) | IC50, inhibition of 100 pM Activin A in A204/CAGAx12-Luc luciferase bioassay (Activin A [4]) | IC50, inhibition of 50 pM Activin B in A204/CAGAx12-Luc luciferase bioassay (Activin B) | IC50, inhibition of 30 pM Activin AB in A204/CAGAx12-Luc luciferase bioassay (Activin AB) | % bound RU w/ no inhibitor (Activin A [5]) | % bound RU w/ no inhibitor (Activin A [6]) | % bound RU w/ no inhibitor (Activin A [7]) | % bound RU w/ no inhibitor (Activin A [8]) | % bound RU w/ no inhibitor (Activin A [9]) | % bound RU w/ no inhibitor (Activin A [10]) | % bound RU w/ no inhibitor (Activin A [11]) | % bound RU w/ no inhibitor (Activin A [12]) | % bound RU w/ no inhibitor (Activin A [13]) | % bound RU w/ no inhibitor (Activin A [14]) | % bound RU w/ no inhibitor (Activin A [15]) | % bound RU w/ no inhibitor (Activin A [16]) | % bound RU w/ no inhibitor (Activin A [17]) | further results |
| --- | --- | --- | --- | --- | --- | --- | --- | --- | --- | --- | --- | --- | --- | --- | --- | --- | --- | --- | --- | --- | --- |
| B1 | 75% | 61% | 2% | 1.3 nM | 2e-10 M | 1.3e-10 M | 1.4e-10 M | 2% | 55% | 1% | 78% | 2% | 16% | 1% | 100% | 2% | 2% | 2% | 16% | 100% | – |
| B2 | – | – | – | – | – | – | – | – | – | – | – | – | – | – | – | – | – | – | – | – | 50 nM Ag Bound (RU) [18]: 4.7 RU |
| B3 | 87% | 80% | 3% | 0.58 nM | 1.6e-10 M | 7.9e-08 M | 2.9e-10 M | 1% | 66% | 1% | 97% | 1% | 20% | 1% | 100% | 1% | 1% | 2% | 19% | 100% | – |
| B4 | 75% | 57% | 0% | 0.75 nM | 2.8e-10 M | 5.2e-09 M | 4.3e-10 M | 3% | 52% | 4% | 76% | 4% | 17% | 2% | 100% | 6% | 3% | 1% | 17% | 100% | – |
